For orientation: Kd means the free concentration of one partner at which half of the binding sites on the other are occupied at equilibrium, for simple one-to-one binding. High values mean weaker binding, low ones tighter binding.

What all share (details): both partners purified
The target in one assay is T1, p73 DNA-binding domain.
T1 construct: also called p73 DBD; source: E. coli BL21(DE3) Rosetta, purified (IMAC, TEV digestion, reverse IMAC, SEC)
The assay is described as follows: ITC; target protein titrated into a constant concentration of DARPin, 25 injections of 10 µl; 50 mM HEPES pH 7.4, 150 mM NaCl, 0.5 mM TCEP; 25 °C; AB hetero-association model (SEDPHAT). (Isothermal titration calorimetry measures the heat released or taken up as one component is titrated into another.)

The next assay deals with T2, p63 DNA-binding domain (human).
T2 construct: also called p63 DBD; source: E. coli BL21(DE3) Rosetta, purified (IMAC, TEV digestion, reverse IMAC, SEC)
The assay is described as follows: ITC; target protein titrated into a constant concentration of DARPin, 25 injections of 10 µl; 50 mM HEPES pH 7.4, 150 mM NaCl, 0.5 mM TCEP; 10 °C; AB hetero-association model (SEDPHAT).

The target of the next assay is T3, TAp63α (human).
T3 construct: closed, dimeric; also called TAp63a; source: E. coli, bacterially expressed and purified (IMAC, SEC on Superdex 200)
The assay is described as follows: fluorescence polarisation; fluorescence anisotropy; 500 nM Alexa 488 labeled DARPin constant, p63 isoform 0-10 µM; 50 mM Tris pH 8, 150 mM NaCl, 0.5 mM TCEP, 0.1 % Tween-20; the sheet says 20 °C, the methods 16 °C. (Fluorescence polarisation rises when a labelled molecule tumbles more slowly, as on binding a larger partner.)

For the next assay, the target named is T4, ΔNp63α (human, UniProt Q9H3D4-2 1-586).
T4 construct: open, tetrameric; also called DNp63a; source: E. coli, bacterially expressed and purified (IMAC, SEC on Superose 6)
T4 sequence (looked up): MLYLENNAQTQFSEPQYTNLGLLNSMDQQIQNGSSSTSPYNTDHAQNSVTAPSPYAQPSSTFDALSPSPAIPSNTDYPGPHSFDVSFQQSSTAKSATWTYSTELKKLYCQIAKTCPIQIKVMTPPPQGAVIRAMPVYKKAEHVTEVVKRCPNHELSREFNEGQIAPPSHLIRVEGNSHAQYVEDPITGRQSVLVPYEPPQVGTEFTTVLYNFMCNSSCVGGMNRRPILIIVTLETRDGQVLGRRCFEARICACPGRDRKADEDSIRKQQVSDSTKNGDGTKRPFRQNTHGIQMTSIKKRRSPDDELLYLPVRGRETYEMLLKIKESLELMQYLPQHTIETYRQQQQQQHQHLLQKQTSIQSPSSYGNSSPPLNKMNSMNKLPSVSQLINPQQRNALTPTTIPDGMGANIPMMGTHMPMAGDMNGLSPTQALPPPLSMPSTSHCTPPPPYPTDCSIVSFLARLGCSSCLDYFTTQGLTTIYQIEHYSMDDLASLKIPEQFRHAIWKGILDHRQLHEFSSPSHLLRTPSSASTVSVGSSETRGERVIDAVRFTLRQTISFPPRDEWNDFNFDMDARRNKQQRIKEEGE
The assay is described as above.

B1: DARPin G4 (designed binder)
chain: GSDLGKKLLEAARAGQDDEVRILMANGADVNAADHSGDTPLHLAAMEGHLEIVEVLLKTGADVNAHDLEGYTPLHLAAYHGHLEIVEVLLKAGADVNAWDSYGYTPLHLAAMTGHLEIVEVLLKHGADVNAQDKFGKTPFDLAIDNGNEDIAEVLQKAA
modifications: G4 assigned to 7Z7E by elimination: 7Z71 = C14, 7Z72 = A5, 7Z73 = 8F1; 7Z7E is the other p63 DBD-DARPin complex
Turning to B1, the figures for the Ka in the assay with p73 DNA-binding domain and in the assay with p63 DNA-binding domain were 4.48e+06 M⁻¹ and 3.14e+07 M⁻¹, respectively.

B2: Alexa 488 labeled DARPin G4 (designed binder)
chain: B1 chain
modifications: Alexa Fluor 488 C5 maleimide on the C-terminal cysteine
B2: the Kd was 727 nM with TAp63α and 137 nM with ΔNp63α.
